Patent US11634486B2, “Anti-SEZ6L2 antibodies and antibody drug conjugates” (Bluefin BioMedicine, Inc., priority 2016, dated 2023)

T1: SEZ6 (293-SEZ6) (Homo sapiens, UniProt Q53EL9)
T1 construct: expressed in transfected cells; host or cells: HEK 293
T1 sequence (Q53EL9 20-994): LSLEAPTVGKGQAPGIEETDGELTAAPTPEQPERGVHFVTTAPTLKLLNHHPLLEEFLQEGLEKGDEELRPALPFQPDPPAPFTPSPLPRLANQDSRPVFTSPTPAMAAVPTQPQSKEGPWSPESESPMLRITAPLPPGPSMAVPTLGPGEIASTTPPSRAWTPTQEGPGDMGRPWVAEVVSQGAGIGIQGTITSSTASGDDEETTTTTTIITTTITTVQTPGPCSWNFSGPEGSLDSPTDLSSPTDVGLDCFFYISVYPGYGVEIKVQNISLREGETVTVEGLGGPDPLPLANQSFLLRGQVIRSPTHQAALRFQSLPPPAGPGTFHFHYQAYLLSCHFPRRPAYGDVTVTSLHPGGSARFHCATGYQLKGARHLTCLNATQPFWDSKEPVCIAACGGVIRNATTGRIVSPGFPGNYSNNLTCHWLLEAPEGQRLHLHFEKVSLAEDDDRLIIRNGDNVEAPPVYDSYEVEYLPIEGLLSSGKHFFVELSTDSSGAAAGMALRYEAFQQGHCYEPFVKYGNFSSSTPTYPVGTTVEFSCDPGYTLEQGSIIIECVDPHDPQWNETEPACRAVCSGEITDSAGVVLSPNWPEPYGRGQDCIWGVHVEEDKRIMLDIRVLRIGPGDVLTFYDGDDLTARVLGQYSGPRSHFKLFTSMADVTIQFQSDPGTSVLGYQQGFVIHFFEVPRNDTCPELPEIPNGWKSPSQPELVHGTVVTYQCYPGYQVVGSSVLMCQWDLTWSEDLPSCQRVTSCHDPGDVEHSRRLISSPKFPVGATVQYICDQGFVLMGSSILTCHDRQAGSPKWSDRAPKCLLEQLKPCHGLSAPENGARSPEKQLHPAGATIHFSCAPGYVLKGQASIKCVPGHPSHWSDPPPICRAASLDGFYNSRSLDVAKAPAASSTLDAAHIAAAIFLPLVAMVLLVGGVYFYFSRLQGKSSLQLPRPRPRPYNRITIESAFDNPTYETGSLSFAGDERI

T2: SEZ6L (293-SEZ6L) (Homo sapiens, UniProt Q9BYH1)
T2 construct: expressed in transfected cells; host or cells: HEK 293
T2 sequence (Q9BYH1 29-1024): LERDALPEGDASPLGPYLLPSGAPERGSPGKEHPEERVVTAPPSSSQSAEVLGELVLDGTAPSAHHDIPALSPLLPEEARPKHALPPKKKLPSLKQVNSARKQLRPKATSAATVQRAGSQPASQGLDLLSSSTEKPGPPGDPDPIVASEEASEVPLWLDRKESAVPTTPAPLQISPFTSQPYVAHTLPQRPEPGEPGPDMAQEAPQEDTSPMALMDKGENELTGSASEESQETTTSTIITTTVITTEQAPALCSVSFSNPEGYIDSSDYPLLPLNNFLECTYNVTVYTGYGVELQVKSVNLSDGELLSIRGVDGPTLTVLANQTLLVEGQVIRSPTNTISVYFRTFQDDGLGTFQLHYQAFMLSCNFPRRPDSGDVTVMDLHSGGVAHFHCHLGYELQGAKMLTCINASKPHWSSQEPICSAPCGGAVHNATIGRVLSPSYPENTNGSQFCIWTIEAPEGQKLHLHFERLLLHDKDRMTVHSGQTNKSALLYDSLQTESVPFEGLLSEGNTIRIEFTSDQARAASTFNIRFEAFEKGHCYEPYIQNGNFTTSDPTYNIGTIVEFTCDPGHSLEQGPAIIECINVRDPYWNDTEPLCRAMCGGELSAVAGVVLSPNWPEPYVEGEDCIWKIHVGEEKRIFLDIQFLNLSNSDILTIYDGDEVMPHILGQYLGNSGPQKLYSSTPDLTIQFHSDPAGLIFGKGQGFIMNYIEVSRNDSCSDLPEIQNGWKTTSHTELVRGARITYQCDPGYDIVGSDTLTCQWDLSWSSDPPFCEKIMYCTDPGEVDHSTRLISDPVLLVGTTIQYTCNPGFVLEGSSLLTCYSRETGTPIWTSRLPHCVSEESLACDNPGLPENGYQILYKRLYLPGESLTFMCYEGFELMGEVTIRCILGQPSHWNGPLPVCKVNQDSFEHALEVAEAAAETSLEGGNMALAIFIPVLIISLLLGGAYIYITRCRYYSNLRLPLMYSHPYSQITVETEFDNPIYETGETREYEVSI


Tests used:
[1] = biological target: T1, SEZ6 (293-SEZ6); experiment: Flow cytometry specificity on overexpressing 293 cells; assay type: binding; settings: primary antibody 1 ug/ml, live cells on ice
Method: (§1) In order to assess whether SEZ6L2 antibody modulators immunospecifically associate with human SEZ6L2, and to determine whether the same modulators cross-react with SEZ6 and SEZ6L, flow cytometry was performed using a MACSquant™ as per the manufacturer's instructions. More particularly, modulators were tested for cross reactivity to cell lines that overexpress the human homologs of SEZ6 (293-SEZ6), SEZ6L (293-SEZ6L), and SEZ6L2 (293-SEZ6L2).
(§2) Briefly, staining for flow cytometry was performed in lx cold PBS with 0.5% BSA. Primary antibodies (1 ug/ml) were incubated with live cells on ice for one hour. After washing in the same buffer, cells were incubated with Alexa Fluro® 488-conjugated anti-human IgG secondary antibody @1:1000 (709-546-149, Jackson ImmunoResearch) on ice in the dark. After a 30 minute incubation, cells were washed in the same buffer and re-suspended in buffer plus propidium iodide (PI) to identify live cells. As a negative control, cells were incubated with secondary antibody alone. Acquisition of the data was performed on a MACSQuant® Flow Cytometer (Miltenyi Biotec) and analyzed with FlowJo software.

[2] = biological target: T2, SEZ6L (293-SEZ6L); experiment: as above; assay type: binding; settings: primary antibody 1 ug/ml, live cells on ice
Method: as §1, §2

[3] = biological target: T3, SEZ6L2 (293-SEZ6L2) (Homo sapiens, UniProt Q6UXD5); experiment: as above; assay type: binding; settings: primary antibody 1 ug/ml, live cells on ice
T3 construct: cDNA encoding the complete mature human SEZ6L2 protein containing a C-terminal FLAG tag was purchased from Origene; FLAG (C); host or cells: HEK 293
Method: as §1, §2

[4] = test system: Cynomolgus monkey SEZ6L2; experiment: ForteBio Octet binding kinetics, Protein A biosensors
Method: (§3) Affinity: The affinity of antibodies to various recombinant SEZ6L2 molecules was determined on an Octet Red (Pall, ForteBio) instrument. After loading reagents into a 96-well plate, the Octet Red with Protein A-conjugated biosensors was programmed as follows: 30 seconds for baseline #1; 120 seconds to immobilize the antibody; 30 seconds for baseline #2; 300 seconds for association of antibody to recombinant SEZ6L2; and 300-600 seconds for dissociation of recombinant SEZ6L2 from the antibody.
(§4) Table 10, below, indicates the KD, Kon, and Koff values for human antibodies 1A1, 3A1, 3A2, and 3A3 and humanized antibodies 16H8, 3E2, 20C4, and 2E4, for both human SEZ6L2 and cynomolgus monkey SEZL2, as determined by ForteBio Data Analysis 9.0 Kinetics software. Briefly, within the ForteBio Octet red96 instrument, Protein A biosensors were incubated with fixed amounts of the test antibody. The biosensors with bound antibody were then rinsed and dipped into wells containing varying concentrations of the recombinant target protein. Approximately 5 different concentrations were independently tested. After a period of time, the biosensors were dipped into buffer to allow the target protein to dissociate from the antibody. The ForteBio software package generated a best-fit curve for each of the profiles of the varying concentrations of target protein. The calculated affinity measurements were analyzed, and the rate constant values from the middle of the linear range were chosen.

[5] = biological target: T4, Human SEZ6L2 (Homo sapiens, UniProt Q6UXD5); experiment: as above
T4 construct: a protein composed of the extracellular portion of the human SEZ6L2 protein; His6 (C); made in house; host or cells: CHO (ExpiCHO)
Method: as §3, §4

[6] = test system: small cell lung cancer cell line NCI-H209; experiment: ADC combined with PARP inhibitor, cell viability; assay type: cell-based, human; settings: 10 pM conjugate plus olaparib 10 nM to 10 uM, six days
Method: Briefly, the small cell lung cancer cell line NCI-H209, which expresses ˜10,000 copies of SEZ6L2 on the cell surface, was seeded onto 96 well plate at 5000 cells/well Immediately after seeding, 10 pM of 3E2-PBD or isotype control hIgG-PBD (bearing a drug antibody ratio (DAR) of 1.7 and 2.5 respectively) were added to the wells in complete culture medium. A PARP inhibitor (olaparib) was then added to these wells such that the final concentration ranged from 10 nM to 10 uM. The PARP inhibitor was also tested on cells without an ADC. Each treatment was replicated in 2 wells and after six days, the PARP inhibitor plus modulator-mediated PBD cytotoxicity was assessed by quantifying the remaining number of live cells using Cell Titer Glo™. Cell viability was graphed by Prism™ using ratio of cell viability of test conditions to that of control wells treated with growth medium only.

T4 sequence (Q6UXD5 28-844 limits assumed): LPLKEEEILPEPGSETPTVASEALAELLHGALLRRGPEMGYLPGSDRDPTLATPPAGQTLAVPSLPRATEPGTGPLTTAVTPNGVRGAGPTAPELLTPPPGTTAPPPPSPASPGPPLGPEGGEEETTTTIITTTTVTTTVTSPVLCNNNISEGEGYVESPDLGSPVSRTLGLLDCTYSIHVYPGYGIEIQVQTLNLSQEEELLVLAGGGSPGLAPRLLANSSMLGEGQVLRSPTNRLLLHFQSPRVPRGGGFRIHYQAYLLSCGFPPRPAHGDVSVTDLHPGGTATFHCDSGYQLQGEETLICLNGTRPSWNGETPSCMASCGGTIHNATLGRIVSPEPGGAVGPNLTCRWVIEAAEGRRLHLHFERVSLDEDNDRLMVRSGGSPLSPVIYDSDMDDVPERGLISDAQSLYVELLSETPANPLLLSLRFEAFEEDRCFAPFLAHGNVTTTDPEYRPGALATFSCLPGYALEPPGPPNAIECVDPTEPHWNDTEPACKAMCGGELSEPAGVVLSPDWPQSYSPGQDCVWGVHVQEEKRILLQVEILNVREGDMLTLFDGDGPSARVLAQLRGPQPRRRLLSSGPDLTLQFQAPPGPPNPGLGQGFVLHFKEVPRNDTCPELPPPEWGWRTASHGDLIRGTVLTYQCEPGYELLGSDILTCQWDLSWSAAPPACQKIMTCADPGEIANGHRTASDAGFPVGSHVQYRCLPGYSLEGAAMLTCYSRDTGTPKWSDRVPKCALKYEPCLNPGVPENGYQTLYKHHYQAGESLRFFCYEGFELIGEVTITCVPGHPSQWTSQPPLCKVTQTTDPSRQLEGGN
T3 sequence (Q6UXD5 28-910): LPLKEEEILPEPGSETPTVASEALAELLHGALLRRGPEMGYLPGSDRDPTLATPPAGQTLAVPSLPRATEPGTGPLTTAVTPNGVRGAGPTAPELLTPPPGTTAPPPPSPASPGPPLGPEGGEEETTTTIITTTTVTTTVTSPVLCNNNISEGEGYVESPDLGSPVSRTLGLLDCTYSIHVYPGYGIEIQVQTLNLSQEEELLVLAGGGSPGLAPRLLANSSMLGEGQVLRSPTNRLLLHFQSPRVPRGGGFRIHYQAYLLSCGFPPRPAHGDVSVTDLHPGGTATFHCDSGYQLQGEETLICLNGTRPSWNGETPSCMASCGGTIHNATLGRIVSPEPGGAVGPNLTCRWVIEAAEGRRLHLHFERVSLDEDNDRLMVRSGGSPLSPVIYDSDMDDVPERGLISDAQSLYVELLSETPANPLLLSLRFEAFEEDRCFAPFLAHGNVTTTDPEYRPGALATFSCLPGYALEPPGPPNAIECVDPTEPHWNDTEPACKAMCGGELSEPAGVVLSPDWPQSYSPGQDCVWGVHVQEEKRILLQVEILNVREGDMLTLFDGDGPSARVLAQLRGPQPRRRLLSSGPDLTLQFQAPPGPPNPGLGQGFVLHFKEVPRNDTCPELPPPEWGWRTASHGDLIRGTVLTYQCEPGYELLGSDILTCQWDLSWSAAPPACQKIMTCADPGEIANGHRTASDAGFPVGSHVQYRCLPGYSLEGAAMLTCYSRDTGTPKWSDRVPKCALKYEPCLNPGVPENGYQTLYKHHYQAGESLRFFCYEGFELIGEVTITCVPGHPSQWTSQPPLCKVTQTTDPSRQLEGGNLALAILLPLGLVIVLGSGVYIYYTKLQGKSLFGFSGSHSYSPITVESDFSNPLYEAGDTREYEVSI

Row | Molecule | binding to 293-SEZ6 cells by flow cytometry [1] | binding to 293-SEZ6L cells by flow cytometry [2] | binding to 293-SEZ6L2 cells by flow cytometry [3] | K(off) [4] | K(on) [4] | K(off) [5] | K(on) [5] | percent viable cells, conjugate combined with PARP inhibitor [6]
1 | 20C4: humanized anti-SEZ6L2 antibody, VH SEQ ID NO: 17, VL SEQ ID NO: 21 (antibody, V domains shown) VH: EVQLVESGGGLVQPGGSLRLSCAASGFTFTDYYMSWVRQAPGKGLEWVALIRNKANGYTTEYSASVKGRFTISRDNSKNSLYLQMNSLRAEDTAVYYCARNGLYGLFAYWGQGTLVTVSSA VL: DIVMTQTPLSIPVTPGEPASISCRSSTSLLESSGKHRLYWYLQKPGQSPQLLIYYMSNLASGVPDRFSGSGSGTDFTLKISRVEAEDFGVYYCMQSLEYPLTFGAGTKVEIKR | no detectable binding | no detectable binding | recognize a cell line that overexpresses SEZ6L2 | 3.18E−04 | 1.05E+05 | 2.20E−04 | 6.35E+04 | –
2 | 16H8: humanized anti-SEZ6L2 antibody, VH SEQ ID NO: 1, VL SEQ ID NO: 5 (antibody, V domains shown) VH: QIQLVQPGAEVKKPGASVKVSCKASGYTFTSYWMYWVRQAPGQGLEWMGAIYPRDSDTSYNQKFKGRVTMTRVTSTSTVYMELSSLRSEDTAVYYCTRGDYYYGSSYYAMDYWGQGTTVTVSSA VL: DIVMTQSPLSLPVTPGEPASISCSSSKSLLHSNGITYLYWYLQKPGQSPQLLIYRMSNLASGVPDRFSGSGSGTDFTLKISRVEAEDVGVYYCAQMLERPYTFGQGTKVEIKR | no detectable binding | no detectable binding | recognize a cell line that overexpresses SEZ6L2 | – | – | 2.20E−04 | 6.03E+05 | –
3 | 2E4: humanized anti-SEZ6L2 antibody, VH SEQ ID NO: 25, VL SEQ ID NO: 29 (antibody, V domains shown) VH: EVKLVESGGVLVKPGGSLRLSCAASGFTFSKYAMSWVRQAPGKGLEWVSTISSGGSYTYYPDSVKGRFTISRDNARNSLYLQMNSLRAEDTAIYYCTREGGYDEGYAMDYWGQGTTVTVSSA VL: DIVMTQSPDSLAVSLGERATINCRSSQSLVHSYGNTYLHWYQQKPGQPPKLLIYKVSNRFSGVPDRFSGSGSGTDFTLTISSLQAEDVAVYFCSQSTHFRTFGGGTKVEIKR | no detectable binding | no detectable binding | recognize a cell line that overexpresses SEZ6L2 | 1.94E−03 | 1.63E+05 | 1.33E−03 | 2.05E+05 | –
4 | 3B6: human anti-SEZ6L2 antibody, VH SEQ ID NO: 109, VL SEQ ID NO: 113 (antibody, V domains shown) VH: QVQLVQSGAEVKKPGASVKVSCKASGYTFTAYYMHWVRQAPGQGLEWMGWINPNSGGTNYAQKFQGRVTMTRDTSIDTAYLDLSRLRSDDTAVYYCAKDSGYDWYFDIWGRGTLVTVSSA VL: EIVLTQSPATLSLSPGERATLSCRASQNISSYLAWYQQKPGQAPRLLIYDASNRATGIPARFSGSGSGTDFTLTISSLEPEDFAVFYCQQHSNWPPLTFGGGTKVEIKR | no detectable binding | no detectable binding | recognize a cell line that overexpresses SEZ6L2 | – | – | – | – | –
5 | 3E2: humanized anti-SEZ6L2 antibody, VH SEQ ID NO: 9, VL SEQ ID NO: 13 (antibody, V domains shown) VH: EVQLVESGGGLVQPGGSLKLSCAASGFSFNTITMNWVRQASGKGLEWVGRIRSKSNNYATYYADAVKDRFTISRDDSKNTAYLQMNSLKTEDTAVYYCVRGIFSGYVYAMDYWGQGTLVTVSSA VL: DVVMTQSPLSLPVTVGQPASISCRSSQSIVHSNGNTYLEWFQQRPGQSPRVLIYKVSNRFSGVPDRFSGSGSGTDFTLKISRVEAEDVGVYYCFQGSHVPYTFGGGTKLEIKR | no detectable binding | no detectable binding | recognize a cell line that overexpresses SEZ6L2 | 2.95E−03 | 1.37E+06 | 3.19E−03 | 1.33E+06 | –
6 | 3E2-PBD (conjugate) VH: EVQLVESGGGLVQPGGSLKLSCAASGFSFNTITMNWVRQASGKGLEWVGRIRSKSNNYATYYADAVKDRFTISRDDSKNTAYLQMNSLKTEDTAVYYCVRGIFSGYVYAMDYWGQGTLVTVSSA VL: DVVMTQSPLSLPVTVGQPASISCRSSQSIVHSNGNTYLEWFQQRPGQSPRVLIYKVSNRFSGVPDRFSGSGSGTDFTLKISRVEAEDVGVYYCFQGSHVPYTFGGGTKLEIKR | – | – | – | – | – | – | – | additive effect
